# Marks after values point to notes of the source that are not given here.
# Columns and labels:
# [1] = system: ES2 (ovarian cancer cell line); assay: Annexin-V binding apoptosis assay after transfection, ES2 cells; type: cell-based, human; conditions: annexin-V binding four hours after transfection
# Procedure: (§1) In these experiments, C/EBPβ-Ala^217 was tested in two mesenchymal cell lines for its ability to induce apoptosis. Human mesenchymal cell lines 1321-N1 (glial cancer cells; obtained from Dr. Joan Brown, at the University of California, San Diego), RD (skeletal muscle cancer cells; ATCC Accession No. CCL-136), human fibroblasts (98VA3N cells, obtained from Dr. Jerry VanderBerg, at the Veterans Administration Medical Center, San Diego, Calif.), ES2 (ovarian cancer cell line), C3A (liver cancer cell line), and MCF-7 breast cancer cells were cultured in minimal essential medium supplemented with fetal bovine serum as known in the art (See e.g., Buck et al., EMBO J., 13:151-160 (1994)). As additional cell types find use in the present invention, it is not intended that the present invention be limited to these specific cell lines. Indeed, similar results have been obtained with other cell types (e.g., CCF-STTG1 cells (ATCC Accession No. CRL-1718)) (data not shown).
# (§2) Cells were co-transfected with vectors expressing the indicator protein GFP and C/EBPβ-Ala^217 as known in the art (See, Buck et al., Mol. Cell., 4:1087-1092 (1999)). Control cells were only transfected with GFP. […]
# [2] = system: MCF-7 breast cancer cells; assay: Annexin-V binding apoptosis assay after transfection, MCF-7 cells; type: cell-based, human; conditions: annexin-V binding four hours after transfection
# Procedure: as §1, §2
# [3] = system: RD (skeletal muscle cancer cells); assay: Annexin-V binding apoptosis assay after transfection, RD cells; type: cell-based, human; conditions: annexin-V binding four hours after transfection
# Procedure: as §1, §2
# [4] = system: 1321-N1 (glial cancer cells); assay: Annexin-V binding apoptosis assay after transfection, 1321-N1 cells; type: cell-based, human; conditions: annexin-V binding four hours after transfection
# Procedure: as §1, §2
# [5] = system: C3A (liver cancer cell line); assay: Annexin-V binding apoptosis assay after transfection, C3A cells; type: cell-based, human; conditions: annexin-V binding four hours after transfection
# Procedure: as §1, §2
# [6] = system: human fibroblasts (98VA3N cells); assay: Annexin-V binding apoptosis assay after transfection, 98VA3N cells; type: cell-based; conditions: annexin-V binding four hours after transfection
# Procedure: as §1, §2
# hepatic stellate cells = assay: Apoptosis of activated stellate cells transfected with C/EBPβ constructs, annexin-V-PE binding; type: cell-based, mouse; conditions: transfected cells on collagen type I matrix
# From the text: FIG. 1 provides data showing that phosphorylation of C/EBPβ on Thr^217 is required for hepatic stellate cell survival. Panel A provides phosphopeptide maps of in vivo labeled endogenous C/EBPβ in day-4 quiescent and activated primary mouse stellate cells cultured from the time of isolation on EHS or collagen type I matrix, respectively. The arrow indicates the peptide containing Phospho-Thr^217 in activated cells. […] Panel B provides phosphopeptide maps of in vitro labeled C/EPBβ. Active p90RSK phosphorylated C/EPBβ, but not C/EBPβ-Ala^217 on Thr^217 in vitro (arrowheads). Panel C provides results for cells cultured on collagen type I transfected with MSV-C/EBPβ antisense (AS), MSV-C/EBPβ sense (S), or MSV-C/EBPβ-Ala^217 together with CMV-GFP (green fluorescent protein) and p90RSK (1 μg each), as indicated in the Figure. Four hours after transfection, annexin-V-PE binding to plasma membranes was determined. The values presented are the percentage of transfected cells (green) that were annexin-V-PE (+) (red) (P<0.05 for C/EBPβ AS, and C/EBPβ-Ala^217). Panel D provides results for cells transfected as in […] with vectors expressing dominant negative mutants for MEKK1, IκBα, or p90RSK, or treated with the proteasome inhibitor lactacystin (10 μM) (closed bars), and co-transfected with MSV-C/EBPβ-Glu^217 (1 μg each) (open bars) as indicated. Annexin-V-PE binding was determined as described for Panel A (P<0.05 for C/EBPβ-Glu^217). Panel E provides results for cells transfected as described for Panel C, with a dominant-negative p90RSK, treated with FAS (100 nM for 6 hours) or cultured in a serum-free medium for 6 hours (closed bars), and co-transfected with MSV-C/EBPβ-Glu^217 (1 μg each) (open bars), as indicated. Cell death was determined by nuclear staining with Hoechst 33342 (P<0.05 for C/EBPβ-Glu^217 in RSK mut and FAS-treated cells).
# FIG. 4 provides results showing that C/EBPβ PThr^217 associates with procaspases 1 and 8, and inhibits their activation. Panel A provides schematic representations of C/EBPβ peptides. The activation (dotted bars), DNA binding (solid bars) and dimerization (hatched bars) domains are shown. […] Panel C provides results showing that C/EBPβ and procaspase 8 were detected in activated stellate cells isolated from C/EBPβ^+/+ mice by confocal microscopy using specific antibodies (Santa Cruz Biotechnology). Control C/EBPβ^−/− stellate cells were negative for C/EBPβ, positive for procaspase 8, and apoptotic. Panel D provides immunoblot results for MSV vectors expressing C/EBPβ-HA (hemagglutinin protein) peptides (0.3 μg) transfected into activated stellate cells. The expressed peptides were immunoprecipitated with anti-HA antibodies. C/EBPβ-PThr^217 was detected using a specific antibody, only in cells expressing wild-type C/EBPβ. […] RSK was associated with all C/EBPβ peptides. Neither C/EBPβ nor procaspases 1 and 8 were detected in C/EBPβ immunoprecipitates from cells expressing C/EBPβ AS. Reciprocal immunoprecipitations of procaspases and RSK confirmed these associations.
# Adult male Sprague-Dawley rats and adult male C/EBPβ^+/+ and C/EBPβ^−/− (Screpanti et al., supra; and Buck et al., (1999), supra), C/EBPβ-Ala^217 and C/EBPβ-Asp^105 transgenic mice were used for the isolation of primary hepatic stellate cells (Houglum et al., supra). Primary hepatic stellate cells were isolated by collagenase/pronase perfusion and purified by a single step density Nycodenz gradient (Accurate Chemical & Scientific) as known in the art (See, Lee et al., (1995), supra). Cells were plated on type I collagen matrix (Becton Dickinson) or EHS matrix (Matrigel, Collaborative Biomedical Products). Cells were cultured with 10% fetal calf serum/10% fetal bovine serum and transfected with lipofectamine (GIBCO) for DNA vectors or with the Chariot reagent (Active Motif) for peptides (10 μM) as known in the art (See, Houglum et al., supra; and Morris et al., J. Biol. Chem., 274:24942-24946 (1999)). […]
molecule,measurement,setting,value
"C/EBPβ-Ala^217: modified murine C/EBPβ with mutation of Thr^217 to Ala (SEQ ID NO:3), nonphosphorylatable dominant negative mutant (protein, listed as Mus musculus) MHRLLAWDAACLPPPPAAFRPMEVANFYYEPDCLAYGAKAARAAPRAPAAEPAIGEHERAIDFSPYLEPLAPAADFAAPAPAHHDFLSDLFADDYGAKPSKKPADYGYVSLGRAGAKAAPPACFPPPPPAALKAEPGFEPADCKRADDAPAMAAGFPFALRAYLGYQATPSGSSGSLSTSSSSSPPGTPSPADAKAAPAACFAGPPAAPAKAKAKKAVDKLSDEYKMRRERNNIAVRKSRDKAKMRNLETQHKVLELTAENERLQKKVEQLSRELSTLRNLFKQLPEPLLASAGHC",Apoptosis (%),[1],44* %
same,Apoptosis (%),[2],49* %
same,Apoptosis (%),[3],46* %
same,Apoptosis (%),[4],56* %
same,Apoptosis (%),[5],34* %
same,Apoptosis (%),[6],80* %
same,Effect of expressed construct on apoptosis / survival of stellate cells,hepatic stellate cells,became apoptotic
